# Target: CTLA-4-Ig
# Test: -; modified from Xu et al., JI 2012
row,Substance,Kd
1,CD80-Fc-His,0.3 nM
2,CD86-Fc-His,3.6 nM

# Source: patent publication US20220267443A1
